Measured values as given in publication PMC10148881 (2023).

B1: YKTSAAAA peptide / Pirh2 NTD + RING (residues 1–189) [human] (parent complex)
chain 1: YKTSAAAA
chain 2: MAATAREDGASGQERGQRGCEHYDRGCLLKAPCCDKLYTCRLCHDNNEDHQLDRFKVKEVQCINCEKIQHAQQTCEECSTLFGEYYCDICHLFDKDKKQYHCENCGICRIGPKEDFFHCLKCNLCLAMNLQGRHKCIENVSRQNCPICLEDIHTSRVVAHVLPCGHLLHRTCYEEMLKEGYRCPLCMHS
B2: Ala6/C-degron peptide (sequence: YKTSAAAAAA) / Pirh2 NTD + RING (residues 1–189) [human] (parent complex)
chain 1: YKTSAAAAAA
chain 2: B1 chain 2

Variants of: B1
Experiment: ITC

Variant | Kd [µM]
chain 1 A5S | 4.5
chain 1 A5P | 57
chain 1 A5G | 55

Variants of: B1
Experiment: ITC
Remark: another data set of the same source

Variant | Kd [µM]
chain 1 A7P | 26
chain 1 A7G | 22
chain 1 A7V | 13
chain 1 A7S | 20
chain 1 A7I | 13

Variants of: B1
Experiment: ITC
Remark: another data set of the same source

Variant | Kd [µM]
chain 1 A6G | 2.3
chain 1 A6S | 3
chain 1 A6I | 2.7
chain 1 A6V | 1.9
chain 1 A6L | 2.8

Variants of: B1
Experiment: ITC
Remark: another data set of the same source

Variant | Kd [µM]
chain 1 A8G | 23

Variants of: B2
Experiment: ITC

Variant | Kd [µM]
chain 1 A8T | 0.7
